Molecular target: T1, CD20 antigen (UniProtKB P11836 - gene MS4A1), on Daudi cells (Homo sapiens, UniProt P11836 1-297)
T1 sequence: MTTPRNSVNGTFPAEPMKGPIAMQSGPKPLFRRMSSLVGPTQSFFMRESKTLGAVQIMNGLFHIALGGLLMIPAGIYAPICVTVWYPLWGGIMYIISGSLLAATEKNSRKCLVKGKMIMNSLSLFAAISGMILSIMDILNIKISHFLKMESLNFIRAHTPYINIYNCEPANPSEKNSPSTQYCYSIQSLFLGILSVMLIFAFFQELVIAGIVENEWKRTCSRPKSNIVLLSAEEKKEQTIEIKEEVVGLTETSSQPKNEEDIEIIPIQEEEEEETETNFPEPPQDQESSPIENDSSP
Assay: cell-based or functional assay

B1: anti-CD20 dimeric antigen receptor (CD20 DAR), expressed on primary human T cells (other)
heavy: QVQLQQPGAELVKPGASVKMSCKASGYTFTSYNMHWVKQTPGRGLEWIGAIYPGNGDTSYNQKFKGKATLTADKSSSTAYMQLSSLTSEDSAVYYCARSTYYGGDWYFNVWGAGTTVTVSAASTKGPSVFPLAPSSKSTSGGTAALGCLVKDYFPEPVTVSWNSGALTSGVHTFPAVLQSSGLYSLSSVVTVPSSSLGTQTYICNVNHKPSNTKVDKRVEPKSCDKTHTPRKIEVMYPPPYLDNEKSNGTIIHVKGKHLCPSPLFPGPSKPFWVLVVVGGVLACYSLLVTVAFIIFWVKRGRKKLLYIFKQPFMRPVQTTQEEDGCSCRFPEEEEGGCELRVKFSRSADKGERRRGKGHDGLYQGLSTATKDTYDALHMQALPPR
light: QIVLSQSPAILSASPGEKVTMTCRASSSVSYIHWFQQKPGSSPKPWIYATSNLASGVPVRFSGSGSGTSYSLTISRVEAEDAATYYCQQWTSNPPTFGGGTKLEIKRTVAAPSVFIFPPSDEQLKSGTASVVCLLNNFYPREAKVQWKVDNALQSGNSQESVTEQDSKDSTYSLSSTLTLSKADYEKHKVYACEVTHQGLSSPVTKSFNRGEC
  fold-change of expansion over four days of co-culture: > 10 fold
